According to US20240352452A1:

Columns and labels:
Assay in all cases: CasPlay immunoprecipitation of the virome-wide library (245,002 barcodes), z-score of gRNA barcodes
[1] = target: dCas9-HA epitope tag control peptide (CasPlay virome library) (Streptococcus pyogenes) (UniProt Q99ZW2)
[2] = target: dCas9-FLAG peptide fusion (CasPlay library member, C-terminal 6His tag) (Streptococcus pyogenes) (UniProt Q99ZW2)
[3] = target: dCas9-myc epitope tag control peptide (CasPlay virome library) (Streptococcus pyogenes) (UniProt Q99ZW2)

## anti-HA antibody (Cell Signaling C29F4)
[1]
  rank of z-score among all peptides of the library: < 0.2%

## anti-FLAG M2 antibody
[2]
  rank of z-score among all peptides of the library: < 0.2%

## anti-myc antibody (Abcam ab9106)
[3]
  rank of z-score among all peptides of the library: < 0.2%
